The target in experiment [1] is T1, human GPC3 on HepG2 cells (human, UniProt P51654 25-554).
T1 construct: whole, on cells
Nature of the experiment: FACS, phage-displayed clone on HepG2, well B4; same clone on A-431 (no GPC3): 1.12%.

The target of experiment [2] is T1, human GPC3 on HepG2 cells. The experiment in a line: FACS, phage-displayed clone on HepG2, well B4; same clone on A-431 (no GPC3): 1095.02. For orientation: A flow cytometer gives signals particle by particle.
For experiment [3], the target named is T1, human GPC3 on HepG2 cells. The experiment in a line: FACS, periplasmic extract 1:5 + anti-c-myc + GAM-APC on HepG2, well B4; same on A-431: 0.54%.
Experiment [4] has as its target T1, human GPC3 on HepG2 cells. The experiment in a line: FACS, periplasmic extract 1:5 + anti-c-myc + GAM-APC on HepG2, well B4; same on A-431: 873.16.
Experiment [5] deals with T2, human GPC3 recombinant protein (human, UniProt P51654 25-559).
T2 construct: also called huGPC3; Human GPC3 protein
Nature of the experiment: SPR (Biacore) off-rate screen, periplasmic extract over human GPC3 on CM5; R0 38.8. The protocol:
(§1) Human GPC3 protein in acetate buffer, pH 5.0, was immobilized in a sensor chip CM5 (GE Healthcare; Cat. Nr. BR-1005-30; Lot. Nr.10245232) and successful immobilization was confirmed by using a commercially available human GPC3 antibody (R&D cat. nr. MAB2119) and the anti-GPC3-VHH-Fc (both at 10 μg/mL). Periplasmic extracts from the MP were diluted in Biacore Buffer (0.01 M HEPES pH 7.4, 0.15 M NaCl, 3 mM EDTA, 0.05% P20) and injected over 2 minutes at 30 μL/min. 10 μl of 10 mM NaOH/1M NaCl were injected between samples and off-rates were measured over 5 minutes. Off-rate ([…]) were calculated using BIACORE software 1:1 interaction Langmuir binding model.
On the technique in general: SPR reads the build-up and loss of mass on a sensor chip optically.

In experiment [6] the target is T2, human GPC3 recombinant protein. The experiment in a line: SPR (Biacore) off-rate screen, periplasmic extract over human GPC3 on CM5; R0 40.0. The method, then:
as §1

For experiment [7] the target is unchanged. The experiment in a line: SPR (Biacore), summary table; Chi2 0.466; Profile 'Good'.
The target is the same in experiment [8]. Nature of the experiment: SPR (Biacore) off-rate screen, periplasmic extract over human GPC3 on CM5; R0 46.9. The protocol: as §1
Experiment [9] has the same target. Nature of the experiment: SPR (Biacore), VHH-His over human GPC3 on CM5; fit 197.5 - 17.34 nM; Rmax 10.9 RU; Chi2 0.466. The method, then:
(§2) Affinities of the 19 VHH-His tagged domains were then determined by BiaCore assay. Human GPC3 protein (Sino biological cat. nr. 10088-H08H-500) was immobilized on CM5 sensor chip (GE Healthcare) as antigen. Purified VHH-His tagged domains were diluted in BiaCore buffer (0.01 M HEPES pH 7.4, 0.15 M NaCl, 3 mM EDTA, 0.05% P20) to 500 nM and injected over 2 minutes at […] followed by a half dilution series to 7.8 nM. 10 μl of 10 mM NaOH/1M NaCl were injected between samples and then off-rate wash was 5 minutes.

The target in experiment [10] is T1, human GPC3 on HepG2 cells. The experiment in a line: FACS, phage-displayed clone on HepG2, well D3; same clone on A-431 (no GPC3): 1.16%.
The target of experiment [11] is T1, human GPC3 on HepG2 cells. The experiment in a line: FACS, phage-displayed clone on HepG2, well D3; same clone on A-431 (no GPC3): 1102.21.
Experiment [12] addresses T1, human GPC3 on HepG2 cells. Nature of the experiment: FACS, periplasmic extract 1:5 + anti-c-myc + GAM-APC on HepG2, well D3; same on A-431: 0.36%.
For experiment [13], the target named is T2, human GPC3 recombinant protein. The experiment in a line: SPR (Biacore), summary table; Chi2 0.59; Profile 'Good'; FIG. 18 prints 5.24E-09. The protocol: as §2
Experiment [14] addresses T1, human GPC3 on HepG2 cells. The experiment in a line: FACS, periplasmic extract 1:5 + anti-c-myc + GAM-APC on HepG2, well D3; same on A-431: 802.83.
Experiment [15] has as its target T2, human GPC3 recombinant protein. The experiment in a line: SPR (Biacore) off-rate screen, periplasmic extract over human GPC3 on CM5; R0 47.2. The protocol:
as §1

For experiment [16] the target is unchanged. Nature of the experiment: SPR (Biacore), VHH-His over human GPC3 on CM5; fit 197.5 - 26.0 nM; Rmax 14.1 RU; Chi2 0.59. The protocol: as §2
For experiment [17] the target is unchanged. The experiment in a line: SPR (Biacore) off-rate screen, periplasmic extract over human GPC3 on CM5; R0 26.5. The protocol:
as §1

Experiment [18] shares this target. Nature of the experiment: SPR (Biacore), summary table; Chi2 0.465; Profile 'Very good'; FIG. 18 prints 6.01E-09.
Experiment [19] has the same target. Nature of the experiment: SPR (Biacore), VHH-His over human GPC3 on CM5; fit 197.5 - 17.34 nM; Rmax 10.9 RU; Chi2 0.465. The protocol: as §2
Experiment [20] concerns the target T1, human GPC3 on HepG2 cells. Nature of the experiment: FACS, phage-displayed clone on HepG2, well C3; same clone on A-431 (no GPC3): 1.31%.
The target in experiment [21] is T1, human GPC3 on HepG2 cells. Nature of the experiment: FACS, phage-displayed clone on HepG2, well C3; same clone on A-431 (no GPC3): 1100.37.
Experiment [22] concerns the target T1, human GPC3 on HepG2 cells. The experiment in a line: FACS, periplasmic extract 1:5 + anti-c-myc + GAM-APC on HepG2, well C3; same on A-431: 0.12%.
For experiment [23], the target named is T2, human GPC3 recombinant protein. Nature of the experiment: SPR (Biacore), summary table; Chi2 0.43; Profile 'Good'; FIG. 18 prints 6.64E-09. The protocol:
as §2

Experiment [24] concerns the target T1, human GPC3 on HepG2 cells. The experiment in a line: FACS, periplasmic extract 1:5 + anti-c-myc + GAM-APC on HepG2, well C3; same on A-431: 697.44.
The target in experiment [25] is T2, human GPC3 recombinant protein. Nature of the experiment: SPR (Biacore) off-rate screen, periplasmic extract over human GPC3 on CM5; R0 31.6. The method, then: as §1
Experiment [26] shares this target. Nature of the experiment: SPR (Biacore), VHH-His over human GPC3 on CM5; fit 250 - 7.8 nM; Rmax 9.47 RU; Chi2 0.43. The protocol:
as §2

For experiment [27] the target is unchanged. Nature of the experiment: SPR (Biacore), summary table; Chi2 0.266; Profile 'Good'. The protocol:
as §2

The target of experiment [28] is T1, human GPC3 on HepG2 cells. Nature of the experiment: FACS, phage-displayed clone on HepG2, well F3; same clone on A-431 (no GPC3): 1.39%.
The target of experiment [29] is T1, human GPC3 on HepG2 cells. Nature of the experiment: FACS, phage-displayed clone on HepG2, well F3; same clone on A-431 (no GPC3): 1412.11.
Experiment [30] deals with T1, human GPC3 on HepG2 cells. Nature of the experiment: FACS, periplasmic extract 1:5 + anti-c-myc + GAM-APC on HepG2, well F3; same on A-431: 0.18%.
Experiment [31] concerns the target T1, human GPC3 on HepG2 cells. Nature of the experiment: FACS, periplasmic extract 1:5 + anti-c-myc + GAM-APC on HepG2, well F3; same on A-431: 965.7.
Experiment [32] has as its target T2, human GPC3 recombinant protein. Nature of the experiment: SPR (Biacore) off-rate screen, periplasmic extract over human GPC3 on CM5; R0 39.2. The method, then:
as §1

Experiment [33] shares this target. Nature of the experiment: SPR (Biacore), VHH-His over human GPC3 on CM5; fit 131.7 - 17.34 nM; Rmax 9.97 RU; Chi2 0.266. The method, then: as §2

Where a chain is given by its changes, count along the chain named.

As a reminder, the koff is a measure of how fast the partners let go of each other. The Kd is the constant that tells how readily two partners part at equilibrium. As usually defined, the kon is the rate constant with which the complex forms.

T2 sequence (P51654 25-559 limits assumed): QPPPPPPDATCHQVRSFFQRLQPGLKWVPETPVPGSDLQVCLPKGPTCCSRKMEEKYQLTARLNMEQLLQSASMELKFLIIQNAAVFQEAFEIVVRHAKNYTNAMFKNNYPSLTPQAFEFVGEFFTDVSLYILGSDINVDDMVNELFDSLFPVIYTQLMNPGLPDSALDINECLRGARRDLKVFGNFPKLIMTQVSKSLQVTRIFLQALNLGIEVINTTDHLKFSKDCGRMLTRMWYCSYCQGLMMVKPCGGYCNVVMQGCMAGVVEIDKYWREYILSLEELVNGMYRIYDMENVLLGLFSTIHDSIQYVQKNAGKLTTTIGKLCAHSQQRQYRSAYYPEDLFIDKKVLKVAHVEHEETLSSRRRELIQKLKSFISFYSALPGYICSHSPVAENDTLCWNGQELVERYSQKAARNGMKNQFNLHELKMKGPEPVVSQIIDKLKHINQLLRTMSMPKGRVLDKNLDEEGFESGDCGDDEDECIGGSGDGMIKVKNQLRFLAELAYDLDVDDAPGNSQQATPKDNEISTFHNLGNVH
T1 sequence (P51654 25-554 limits assumed): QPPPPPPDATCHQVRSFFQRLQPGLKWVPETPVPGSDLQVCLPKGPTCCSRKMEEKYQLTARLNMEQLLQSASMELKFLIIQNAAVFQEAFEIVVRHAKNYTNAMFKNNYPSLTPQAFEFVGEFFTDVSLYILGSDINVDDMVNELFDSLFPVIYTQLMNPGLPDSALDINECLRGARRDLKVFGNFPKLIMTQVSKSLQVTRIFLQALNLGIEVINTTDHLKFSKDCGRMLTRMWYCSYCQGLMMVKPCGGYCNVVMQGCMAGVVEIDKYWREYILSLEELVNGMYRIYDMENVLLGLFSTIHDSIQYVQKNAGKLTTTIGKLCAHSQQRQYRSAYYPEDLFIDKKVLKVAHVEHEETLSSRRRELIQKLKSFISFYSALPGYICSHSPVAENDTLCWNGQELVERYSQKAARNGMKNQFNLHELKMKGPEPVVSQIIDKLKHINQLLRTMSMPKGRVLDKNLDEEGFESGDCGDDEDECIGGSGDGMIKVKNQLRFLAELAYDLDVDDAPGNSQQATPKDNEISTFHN

B1: VH29 (VHH)
VHH: QVQLVESGGGLVQPGGSLRLSCAASGFTFSSYAMSWVRQAPGKEPEWVSSISGGGSSTYYADSLKGRFTISRDNSKNTLYLQMNSLRAEDTAVYYCSRDPRFGEPPFDYWGQGTLVTVSS
notes: also called VHH29
As for B1, the values for the % of Binding in experiment [1] and in experiment [3] were 35.7% and 1.43%, respectively. Further, the Mean FL2-A in [2] is 11100. Besides, the Mean FL4-A in experiment [4] came out at 931. Further, the koff in experiment [5] is 0.00493 s⁻¹.

B2: VH27 (VHH)
VHH: B1 VHH with Q1E
notes: also called VHH27
On to B2, for which, in experiment [6], the koff was 0.00387 s⁻¹.

B3: anti-GPC3 VHH-His tagged domain VHH7 (VHH)
VHH: B1 VHH with Q1E, L115T
notes: Produced from a mammalian expression vector as a His fusion; not shown: His tag
For the molecule B3, in experiment [7], the Kd came to 6.84 nM. Besides, the koff in [8] turned out to be 0.00457 s⁻¹. In [9], the Ka was determined as 1.46e+08 M⁻¹, the Kd amounted to 6.84 nM, the off-rate constant (koff) worked out at 0.00262 s⁻¹ and the kon stood at 383000 M⁻¹ s⁻¹.

B4: anti-GPC3 VHH-His tagged domain VHH5 (VHH)
VHH: B1 VHH with Q1E, T58A, L115T
notes: as for B3
As to B4, the % of Binding in experiment [10] is 74.3%; in experiment [12] it was 0.5%. This molecule showed a Mean FL2-A in [11] of 57900. Also, the Kd is 3.68 nM in experiment [13] and 5.24 nM in experiment [16]. In experiment [14], the Mean FL4-A is 812. Also, the results for the koff in [15] and in experiment [16] were 0.00366 s⁻¹ and 0.00253 s⁻¹, respectively. Further, in experiment [16], the Ka was found to be 1.91e+08 M⁻¹. Besides, in experiment [16], the kon came to 484000 M⁻¹ s⁻¹.

B5: anti-GPC3 VHH-His tagged domain VHH1 (VHH)
VHH: B1 VHH with Q1E, S56T, K65E, R98K, L115T
notes: as for B3
As to B5, the koff in experiment [17] came out at 0.00247 s⁻¹. The Kd in experiment [18] amounted to 4.29 nM. Also, in experiment [19], the Ka is 1.66e+08 M⁻¹, the Kd was found to be 6.01 nM, the koff is 0.00167 s⁻¹ and the kon is 278000 M⁻¹ s⁻¹.

B6: anti-GPC3 VHH-His tagged domain VHH6 (VHH)
VHH: B1 VHH with T28I, K65E, R98K, L115T
notes: as for B3
In turn, B6 gave a % of Binding in experiment [20] of 68.7%. In experiment [21], this molecule showed a Mean FL2-A of 43500. The % of Binding in experiment [22] is 0.64%. For the same molecule, in [23], the Kd is 4.34 nM. Besides, in experiment [24], the Mean FL4-A amounted to 915. In addition, the koff in [25] was determined as 0.00221 s⁻¹. Also, in experiment [26], the Ka was 1.51e+08 M⁻¹, the Kd came to 6.64 nM, the koff is 0.00197 s⁻¹ and the kon turned out to be 296000 M⁻¹ s⁻¹.

B7: anti-GPC3 VHH-His tagged domain VHH9 (VHH)
VHH: B1 VHH with F107L, L115T
notes: as for B3
As to B7, the equilibrium dissociation constant (Kd) in experiment [27] and in experiment [33] was 6.15 nM in each case. The % of Binding was found to be 89% in experiment [28] and 0.52% in experiment [30]. This molecule also showed a Mean FL2-A in experiment [29] of 130000. Moreover, the Mean FL4-A in [31] amounted to 1830. The koff is 0.0062 s⁻¹ in [32] and 0.00326 s⁻¹ in experiment [33]. In [33], the Ka was determined as 1.63e+08 M⁻¹. Also, the kon in experiment [33] was found to be 530000 M⁻¹ s⁻¹.

The values are drawn from patent publication US20260191905A1 (MODERNATX, published 2026).
